The values that follow come from article PMC12594183 (2026).

Common to all, as to assay: FP
In one assay the target is T1, SIRT1 NTD(3HB)-CD (Homo sapiens, UniProt Q96EB6).
T1 chain: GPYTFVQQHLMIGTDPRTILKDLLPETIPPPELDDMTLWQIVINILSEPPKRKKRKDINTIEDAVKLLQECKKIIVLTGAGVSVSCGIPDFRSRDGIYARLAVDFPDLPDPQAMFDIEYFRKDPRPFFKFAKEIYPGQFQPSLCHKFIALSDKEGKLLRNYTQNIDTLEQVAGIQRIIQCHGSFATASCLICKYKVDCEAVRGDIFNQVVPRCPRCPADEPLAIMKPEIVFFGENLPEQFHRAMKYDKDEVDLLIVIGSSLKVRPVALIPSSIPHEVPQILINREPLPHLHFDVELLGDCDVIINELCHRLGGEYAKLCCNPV

Another assay concerns the target T2, SIRT1 CD (Homo sapiens, UniProt Q96EB6).
T2 chain: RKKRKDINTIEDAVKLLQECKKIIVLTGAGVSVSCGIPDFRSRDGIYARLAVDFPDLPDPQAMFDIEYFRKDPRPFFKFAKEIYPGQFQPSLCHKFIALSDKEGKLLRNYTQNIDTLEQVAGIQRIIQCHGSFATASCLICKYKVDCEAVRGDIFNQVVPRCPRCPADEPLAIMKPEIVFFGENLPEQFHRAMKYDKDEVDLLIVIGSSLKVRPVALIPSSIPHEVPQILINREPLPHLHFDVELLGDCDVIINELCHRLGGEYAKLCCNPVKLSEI

In the next assay the target is T3, SIRT1 NTD(3HB) (Homo sapiens, UniProt Q96EB6).
T3 chain: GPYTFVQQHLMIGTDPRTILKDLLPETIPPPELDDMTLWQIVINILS

Substitutions are numbered along the chain they refer to.

B1: PPARγ LBD (protein)
chain: PESADLRALAKHLYDSYIKSFPLTKAKARAILTGKTTDKSPFVIYDMNSLMMGEDKIKFKHITPLQEQSKEVAIRIFQGCQFRSVEAVQEITEYAKSIPGFVNLDLNDQVTLLKYGVHEIIYTMLASLMNKDGVLISEGQGFMTREFLKSLRKPFGDFMEPKFEFAVKFNALELDDSDLAIFIAVIILSGDRPGLLNVKPIEDIQDNLLQALELQLKLNHPESSQLFAKLLQKMTDLRQIVTEHVQLLQVIKKTETDMSLHPLLQEIYKDLY
A word on the Kd: it is the concentration at which binding is half-saturated. In the case of B1, the equilibrium dissociation constant (Kd) was 240 nM in the assay with SIRT1 NTD(3HB)-CD, 1620 nM in the assay with SIRT1 CD and 6550 nM in the assay with SIRT1 NTD(3HB).

B2: PPARγ LBD (protein)
chain: B1 chain with L32R
With B2, binding with SIRT1 NTD(3HB)-CD was put at a Kd of 170 nM.

B3: PPARγ LBD (protein)
chain: B1 chain with V43R
B3 displayed a dissociation constant Kd with SIRT1 NTD(3HB)-CD of 810 nM.

B4: PPARγ LBD (protein)
chain: B1 chain with K60Q
With B4, the affinity in the assay with SIRT1 NTD(3HB)-CD, expressed as Kd, was 210 nM.

B5: PPARγ LBD (protein)
chain: B1 chain with K35Q
Molecule B5 came in with a Kd in the assay with SIRT1 NTD(3HB)-CD of 560 nM.

B6: PPARγ LBD (protein)
chain: B1 chain with Q66D
Regarding B6, the affinity with SIRT1 NTD(3HB)-CD, expressed as Kd, was 111000 nM.

B7: PPARγ DBD-LBD (protein)
chain: AIECRVCGDKASGFHYGVHACEGCKGFFRRTIRLKLIYDRCDLNCRIHKKSRNKCQYCRFQKCLAVGMSHNAIRFGRMPQAEKEKLLAEISSDIDQLNPESADLRALAKHLYDSYIKSFPLTKAKARAILTGKTTDKSPFVIYDMNSLMMGEDKIKFKHITPLQEQSKEVAIRIFQGCQFRSVEAVQEITEYAKSIPGFVNLDLNDQVTLLKYGVHEIIYTMLASLMNKDGVLISEGQGFMTREFLKSLRKPFGDFMEPKFEFAVKFNALELDDSDLAIFIAVIILSGDRPGLLNVKPIEDIQDNLLQALELQLKLNHPESSQLFAKLLQKMTDLRQIVTEHVQLLQVIKKTETDMSLHPLLQEIYKDLY
modifications: Rosiglitazone
In the assay with SIRT1 NTD(3HB)-CD, B7 registered a Kd of 690 nM. Against the preceding molecule, the Kd is about 160-fold lower.

B8: PPARγ DBD-LBD (protein)
chain: B7 chain
In the assay with SIRT1 NTD(3HB)-CD, B8 gave a Kd of 1900 nM.

B9: PPARγ DBD-LBD (protein)
chain: B7 chain
modifications: NAD+
Turning to B9, the Kd in the assay with SIRT1 NTD(3HB)-CD worked out at 1670 nM.
